B1: human BLVRB (biliverdin reductase B) (Homo sapiens; S111A) (protein)
chain: MAVKKIAIFGATGQTGLTTLAQAVQAGYEVTVLVRDSSRLPSEGPRPAHVVVGDVLQAADVDKTVAGQDAVIVLLGTRNDLSPTTVMSEGARNIVAAMKAHGVDKVVACTAAFLLWDPTKVPPRLQAVTDDHIRMHKVLRESGLKYVAVMPPHIGDQPLTGAYTVTLDGRGPSRVISKHDLGHFMLRCLTTDEYDGHSTYPSHQYQ
notes: full length, 206 residues; codon-optimised, pET21b (T164S in pJ401k); N-terminal 6xHis tag removed with thrombin
B2: human BLVRB (biliverdin reductase B) (Homo sapiens; T164A) (protein)
chain: MAVKKIAIFGATGQTGLTTLAQAVQAGYEVTVLVRDSSRLPSEGPRPAHVVVGDVLQAADVDKTVAGQDAVIVLLGTRNDLSPTTVMSEGARNIVAAMKAHGVDKVVACTSAFLLWDPTKVPPRLQAVTDDHIRMHKVLRESGLKYVAVMPPHIGDQPLTGAYAVTLDGRGPSRVISKHDLGHFMLRCLTTDEYDGHSTYPSHQYQ
notes: as for B1
B3: human BLVRB (biliverdin reductase B) (Homo sapiens; T164I) (protein)
chain: MAVKKIAIFGATGQTGLTTLAQAVQAGYEVTVLVRDSSRLPSEGPRPAHVVVGDVLQAADVDKTVAGQDAVIVLLGTRNDLSPTTVMSEGARNIVAAMKAHGVDKVVACTSAFLLWDPTKVPPRLQAVTDDHIRMHKVLRESGLKYVAVMPPHIGDQPLTGAYIVTLDGRGPSRVISKHDLGHFMLRCLTTDEYDGHSTYPSHQYQ
notes: as for B1
B4: human BLVRB (biliverdin reductase B) (Homo sapiens; H153A) (protein)
chain: MAVKKIAIFGATGQTGLTTLAQAVQAGYEVTVLVRDSSRLPSEGPRPAHVVVGDVLQAADVDKTVAGQDAVIVLLGTRNDLSPTTVMSEGARNIVAAMKAHGVDKVVACTSAFLLWDPTKVPPRLQAVTDDHIRMHKVLRESGLKYVAVMPPAIGDQPLTGAYTVTLDGRGPSRVISKHDLGHFMLRCLTTDEYDGHSTYPSHQYQ
notes: as for B1
B5: human BLVRB (biliverdin reductase B) (Homo sapiens; T164S) (protein)
chain: MAVKKIAIFGATGQTGLTTLAQAVQAGYEVTVLVRDSSRLPSEGPRPAHVVVGDVLQAADVDKTVAGQDAVIVLLGTRNDLSPTTVMSEGARNIVAAMKAHGVDKVVACTSAFLLWDPTKVPPRLQAVTDDHIRMHKVLRESGLKYVAVMPPHIGDQPLTGAYSVTLDGRGPSRVISKHDLGHFMLRCLTTDEYDGHSTYPSHQYQ
notes: as for B1

These proteins were tested on Cc1cc2nc3c(=O)[nH]c(=O)nc-3n(C[C@H](O)[C@H](O)[C@H](O)COP(=O)(O)OP(=O)(O)OC[C@H]3O[C@@H](n4cnc5c(N)ncnc54)[C@H](O)[C@@H]3O)c2cc1C (assay: purified protein). Conditions: co-substrate NADPH.
Assay type: biochemical, Homo sapiens
Protein B1 has a Km of 325 ± 96 µM and a kcat of 0.021 ± 0.004 s⁻¹.
B2 gave a Km of 153 ± 18 µM and a kcat of 0.063 ± 0.002 s⁻¹.
With B3 the Km was 156 ± 18 µM and the kcat was 0.049 ± 0.003 s⁻¹.
B4 gave a Km of 98 ± 11 µM and a kcat of 0.059 ± 0.003 s⁻¹.
With B5 the Km was 127 ± 15 µM and the kcat was 0.039 ± 0.003 s⁻¹.

Reference: PMC8173106, “Modulating Enzyme Function via Dynamic Allostery within Biliverdin Reductase B” (Frontiers in Molecular Biosciences, 2021)
